Usually Kd stands for the constant that tells how readily two partners part at equilibrium. Low readings indicate a tighter complex, high ones a looser complex.

Here are results for 1 molecule from patent US20090142377A1.

This experiment concerns the target dH5-II (cdH5-0 heat-cycled at pH 2, back to pH 7) (influenza A virus H5N1 strain A/Vietnam/1203/04), Q8QPL1. Description: ELISA, coated H5 form, tPA series with excess e-amino caproic acid. The note with it: remark: other sources report otherwise. In general terms: An ELISA detects its analyte on a solid surface through an enzyme-linked reagent.

B1: tissue type plasminogen activator (tPA; Actilyse, Boehringer-Ingelheim), P00750 36-562 (enzyme)
chain: SYQVICRDEKTQMIYQQHQSWLRPVLRSNRVEYCWCNSGRAQCHSVPVKSCSEPRCFNGGTCQQALYFSDFVCQCPEGFAGKCCEIDTRATCYEDQGISYRGTWSTAESGAECTNWNSSALAQKPYSGRRPDAIRLGLGNHNYCRNPDRDSKPWCYVFKAGKYSSEFCSTPACSEGNSDCYFGNGSAYRGTHSLTESGASCLPWNSMILIGKVYTAQNPSAQALGLGKHNYCRNPDGDAKPWCHVLKNRRLTWEYCDVPSCSTCGLRQYSQPQFRIKGGLFADIASHPWQAAIFAKHRRSPGERFLCGGILISSCWILSAAHCFQERFPPHHLTVILGRTYRVVPGEEEQKFEVEKYIVHKEFDDDTYDNDIALLQLKSDSSRCAQESSVVRTVCLPPADLQLPDWTECELSGYGKHEALSPFYSERLKEAHVRLYPSSRCTSQHLLNRTVTDNMLCAGDTRSGGPQANLHDACQGDSGGPLVCLNDGRMTLVGIISWGLGCGQKDVPGVYTKVTNYLDWIRDNMRP
As for B1, the Bmax was found to be 0.07 and the Kd came out at 19 nM.
